Source: US6921663

How the values were obtained:
Experiment in all cases: cell-based or functional assay
[1] = molecular target: integrin on SK-HEP1 cells (human (cell line))
[2] = molecular target: RGD peptide target integrin (αvβ3 or αvβ5) on LN444 cells (human (LN444 human glioma cells)) (UniProt P06756)
[3] = molecular target: integrin on CHO cells

Sequence of UniProt P06756 (P06756 whole entry): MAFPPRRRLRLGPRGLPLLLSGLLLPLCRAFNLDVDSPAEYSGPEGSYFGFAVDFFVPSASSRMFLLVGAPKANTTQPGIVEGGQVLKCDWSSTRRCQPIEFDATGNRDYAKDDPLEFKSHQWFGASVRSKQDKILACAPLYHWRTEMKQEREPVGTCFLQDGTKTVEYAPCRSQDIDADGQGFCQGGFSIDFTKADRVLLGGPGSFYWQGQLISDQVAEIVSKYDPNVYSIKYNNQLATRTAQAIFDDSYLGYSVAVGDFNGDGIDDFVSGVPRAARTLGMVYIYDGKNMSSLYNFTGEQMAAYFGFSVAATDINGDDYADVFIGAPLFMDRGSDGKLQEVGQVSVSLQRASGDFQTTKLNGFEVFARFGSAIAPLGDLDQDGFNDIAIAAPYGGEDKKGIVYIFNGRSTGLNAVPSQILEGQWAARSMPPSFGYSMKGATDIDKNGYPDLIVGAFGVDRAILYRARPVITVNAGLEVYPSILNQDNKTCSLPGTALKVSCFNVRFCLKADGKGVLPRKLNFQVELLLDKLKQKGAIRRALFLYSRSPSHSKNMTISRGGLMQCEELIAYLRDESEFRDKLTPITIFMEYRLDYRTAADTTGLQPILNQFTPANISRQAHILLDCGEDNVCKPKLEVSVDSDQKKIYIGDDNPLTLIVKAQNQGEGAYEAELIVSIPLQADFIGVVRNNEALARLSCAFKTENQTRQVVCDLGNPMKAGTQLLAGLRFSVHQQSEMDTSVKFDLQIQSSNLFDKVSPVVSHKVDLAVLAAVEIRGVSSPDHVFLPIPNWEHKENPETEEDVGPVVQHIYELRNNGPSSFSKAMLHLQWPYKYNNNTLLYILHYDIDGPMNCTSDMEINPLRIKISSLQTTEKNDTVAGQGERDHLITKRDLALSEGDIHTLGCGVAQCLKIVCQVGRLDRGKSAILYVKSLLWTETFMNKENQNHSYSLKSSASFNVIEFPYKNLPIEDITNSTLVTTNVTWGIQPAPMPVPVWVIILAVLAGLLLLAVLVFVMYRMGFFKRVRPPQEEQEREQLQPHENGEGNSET

Substance	Luc enzyme activity after transduction of SK-HEP1 cells, against AdHM4-L2 (wild fiber) [1]	Luc enzyme activity after transduction of LN444 cells (CAR not expressed), against AdHM4-L2 (wild fiber) [2]	LacZ enzyme activity after transduction of SK-HEP1 cells, against AdHM4-LacZ (wild fiber) [1]	LacZ enzyme activity after transduction of CHO cells (CAR not expressed), against AdHM4-LacZ (wild fiber) [3]
AdHM15-RGD-L2 (adenovirus type 5 vector whose fiber carries the RGD-4C peptide in the HI loop; luciferase cassette) (from UniProt P11818 1-546; P11818 547-581)	10 fold	1000 fold	–	–
AdHM15-RGD-LacZ (adenovirus type 5 vector whose fiber carries the RGD-4C peptide in the HI loop; LacZ cassette in the E1-deleted region) (from UniProt P11818 1-546; P11818 547-581)	–	–	2 fold	40 fold
